Data published in US20160120951A1 (ZEALAND PHARMA A S, published 2016).
Where two headings read alike, the source gives them in different places. Numbered stars: 1 amine (or outer) side, 2 acyl side, 3 side chain; on linkers, the order of the positions; unused ones are H or OH. Bridge positions count the residues as written; N and C are the ends. Square brackets hold non-standard residues; d marks the D form. Side chains are listed from the residue outwards. Ends that are not written are not given here. * marks the point of attachment. isoGlu = used interchangeably with γ-Glu; γGlu = O=C(O)[C@H](CCC(=O)[*:2])N[*:1]; Palmitoyl = CCCCCCCCCCCCCCCC(=O)*; Aib = CC(C)(N)C(=O)O

How the values were obtained:
Test in all cases: cell-based or functional assay
[1] = target: T1, human glucagon-like peptide 1 receptor (GLP-1R) (human, UniProt P43220 24-463)
[2] = target: T2, human glucagon receptor (Glucagon-R) (human, UniProt P47871 26-477)
[3] = target: T1, human glucagon-like peptide 1 receptor …; remark: listed apart in the source
[4] = target: T2, human glucagon receptor (Glucagon-R); remark: listed apart in the source

T1 sequence (P43220 24-463): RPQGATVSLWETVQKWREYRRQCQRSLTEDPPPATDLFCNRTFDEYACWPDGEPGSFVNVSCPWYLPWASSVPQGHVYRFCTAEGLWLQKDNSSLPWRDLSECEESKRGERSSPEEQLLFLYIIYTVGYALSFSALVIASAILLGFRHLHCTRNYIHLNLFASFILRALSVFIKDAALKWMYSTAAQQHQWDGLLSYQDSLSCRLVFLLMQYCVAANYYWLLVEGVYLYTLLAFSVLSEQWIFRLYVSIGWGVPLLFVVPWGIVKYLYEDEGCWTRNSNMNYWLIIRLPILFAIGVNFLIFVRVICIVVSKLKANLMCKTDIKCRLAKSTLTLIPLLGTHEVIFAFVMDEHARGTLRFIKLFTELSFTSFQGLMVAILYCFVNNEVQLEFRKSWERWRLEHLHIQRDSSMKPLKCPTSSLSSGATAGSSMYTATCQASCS

B1: Compound 9 (peptide)
peptide: H-H[Aib]QGTFTSDYSKYLDSK([γGlu-Palmitoyl])AARDFVAWLLRA-NH2
SMILES: CCCCCCCCCCCCCCCC(=O)N[C@@H](CCC(=O)NCCCC[C@H](NC(=O)[C@H](CO)NC(=O)[C@H](CC(=O)O)NC(=O)[C@H](CC(C)C)NC(=O)[C@H](Cc1ccc(O)cc1)NC(=O)[C@H](CCCCN)NC(=O)[C@H](CO)NC(=O)[C@H](Cc1ccc(O)cc1)NC(=O)[C@H](CC(=O)O)NC(=O)[C@H](CO)NC(=O)[C@@H](NC(=O)[C@H](Cc1ccccc1)NC(=O)[C@@H](NC(=O)CNC(=O)[C@H](CCC(N)=O)NC(=O)C(C)(C)NC(=O)[C@@H](N)Cc1c[nH]cn1)[C@@H](C)O)[C@@H](C)O)C(=O)N[C@@H](C)C(=O)N[C@@H](C)C(=O)N[C@@H](CCCNC(=N)N)C(=O)N[C@@H](CC(=O)O)C(=O)N[C@@H](Cc1ccccc1)C(=O)N[C@H](C(=O)N[C@@H](C)C(=O)N[C@@H](Cc1c[nH]c2ccccc12)C(=O)N[C@@H](CC(C)C)C(=O)N[C@@H](CC(C)C)C(=O)N[C@@H](CCCNC(=N)N)C(=O)N[C@@H](C)C(N)=O)C(C)C)C(=O)O
- EC50 (nM) GLP-1R, cAMP formation [1]: 0.12 nM
- EC50 (nM) GluR, cAMP formation [2]: 0.17 nM

B2: Compound 13 (peptide)
peptide: H[Aib]QGTFTSDYSKYLDSK([γGlu-Palmitoyl])AAHDFVEWLLKA-NH2
modifications: lactam 24-28; N-terminus assumed
SMILES: CCCCCCCCCCCCCCCC(=O)N[C@@H](CCC(=O)NCCCC[C@H](NC(=O)[C@H](CO)NC(=O)[C@H](CC(=O)O)NC(=O)[C@H](CC(C)C)NC(=O)[C@H](Cc1ccc(O)cc1)NC(=O)[C@H](CCCCN)NC(=O)[C@H](CO)NC(=O)[C@H](Cc1ccc(O)cc1)NC(=O)[C@H](CC(=O)O)NC(=O)[C@H](CO)NC(=O)[C@@H](NC(=O)[C@H](Cc1ccccc1)NC(=O)[C@@H](NC(=O)CNC(=O)[C@H](CCC(N)=O)NC(=O)C(C)(C)NC(=O)[C@@H](N)Cc1c[nH]cn1)[C@@H](C)O)[C@@H](C)O)C(=O)N[C@@H](C)C(=O)N[C@@H](C)C(=O)N[C@@H](Cc1c[nH]cn1)C(=O)N[C@@H](CC(=O)O)C(=O)N[C@@H](Cc1ccccc1)C(=O)N[C@H](C(=O)N[C@H]1CCC(=O)NCCCC[C@@H](C(=O)N[C@@H](C)C(N)=O)NC(=O)[C@H](CC(C)C)NC(=O)[C@H](CC(C)C)NC(=O)[C@H](Cc2c[nH]c3ccccc23)NC1=O)C(C)C)C(=O)O
- EC50 (nM) GLP-1R, cAMP formation [1]: 0.08 nM
- EC50 (nM) GluR, cAMP formation [2]: 0.26 nM

Binder: HXQGTFTSDYSKYLDSKAAHDFVEWLLSA (Aib at position 2; K(Hexadecanoyl-γ-Glu) at position 17; C-terminal amide (NH2)) [Compound 7]
- EC50 (nM) GLP-1R, cAMP formation [1]: 0.11 nM
- EC50 (nM) GluR, cAMP formation [2]: 0.16 nM

Binder: H-H[Aib]QGTFTSDYSKYLDEK([isoGlu-Palmitoyl])AAHDFVEWLLSA-NH2 [Compound 40]
- EC50 (nM) GLP-1R, cAMP formation [3]: 0.2 nM
- EC50 (nM) GluR, cAMP formation [4]: 0.18 nM

B3: Compound 10 (peptide)
peptide: H-H[Aib]QGTFTSDYSKYLDSKAAK([γGlu-Palmitoyl])DFVAWLLRA-NH2
SMILES: CCCCCCCCCCCCCCCC(=O)N[C@@H](CCC(=O)NCCCC[C@H](NC(=O)[C@H](C)NC(=O)[C@H](C)NC(=O)[C@H](CCCCN)NC(=O)[C@H](CO)NC(=O)[C@H](CC(=O)O)NC(=O)[C@H](CC(C)C)NC(=O)[C@H](Cc1ccc(O)cc1)NC(=O)[C@H](CCCCN)NC(=O)[C@H](CO)NC(=O)[C@H](Cc1ccc(O)cc1)NC(=O)[C@H](CC(=O)O)NC(=O)[C@H](CO)NC(=O)[C@@H](NC(=O)[C@H](Cc1ccccc1)NC(=O)[C@@H](NC(=O)CNC(=O)[C@H](CCC(N)=O)NC(=O)C(C)(C)NC(=O)[C@@H](N)Cc1c[nH]cn1)[C@@H](C)O)[C@@H](C)O)C(=O)N[C@@H](CC(=O)O)C(=O)N[C@@H](Cc1ccccc1)C(=O)N[C@H](C(=O)N[C@@H](C)C(=O)N[C@@H](Cc1c[nH]c2ccccc12)C(=O)N[C@@H](CC(C)C)C(=O)N[C@@H](CC(C)C)C(=O)N[C@@H](CCCNC(=N)N)C(=O)N[C@@H](C)C(N)=O)C(C)C)C(=O)O
- EC50 (nM) GLP-1R, cAMP formation [1]: 0.15 nM
- EC50 (nM) GluR, cAMP formation [2]: 0.63 nM

B4: Compound 12 (peptide)
peptide: H-H[Aib]QGTFTSDYSKYLDSKAAHDFVEWLLK([γGlu-Palmitoyl])A-NH2
SMILES: CCCCCCCCCCCCCCCC(=O)N[C@@H](CCC(=O)NCCCC[C@H](NC(=O)[C@H](CC(C)C)NC(=O)[C@H](CC(C)C)NC(=O)[C@H](Cc1c[nH]c2ccccc12)NC(=O)[C@H](CCC(=O)O)NC(=O)[C@@H](NC(=O)[C@H](Cc1ccccc1)NC(=O)[C@H](CC(=O)O)NC(=O)[C@H](Cc1c[nH]cn1)NC(=O)[C@H](C)NC(=O)[C@H](C)NC(=O)[C@H](CCCCN)NC(=O)[C@H](CO)NC(=O)[C@H](CC(=O)O)NC(=O)[C@H](CC(C)C)NC(=O)[C@H](Cc1ccc(O)cc1)NC(=O)[C@H](CCCCN)NC(=O)[C@H](CO)NC(=O)[C@H](Cc1ccc(O)cc1)NC(=O)[C@H](CC(=O)O)NC(=O)[C@H](CO)NC(=O)[C@@H](NC(=O)[C@H](Cc1ccccc1)NC(=O)[C@@H](NC(=O)CNC(=O)[C@H](CCC(N)=O)NC(=O)C(C)(C)NC(=O)[C@@H](N)Cc1c[nH]cn1)[C@@H](C)O)[C@@H](C)O)C(C)C)C(=O)N[C@@H](C)C(N)=O)C(=O)O
- EC50 (nM) GLP-1R, cAMP formation [1]: 0.27 nM
- EC50 (nM) GluR, cAMP formation [2]: 0.27 nM

B5: Compound 16 (peptide)
peptide: HXQGTFTSDYSKYLDSKAAHDFVEWLLSA
modifications: Aib at position 2; K(Hexadecanoyl-[8-Aminooctanoyl]) at position 17; C-terminal amide (NH2)
- EC50 (nM) GLP-1R, cAMP formation [1]: 0.24 nM
- EC50 (nM) GluR, cAMP formation [2]: 0.46 nM

B6: Compound 15 (peptide)
peptide: HXQGTFTSDYSKYLDSKAAHDFVEWLLSA
modifications: Aib at position 2; K(Hexadecanoyl-[3-Aminopropanoyl]) at position 17; C-terminal amide (NH2)
- EC50 (nM) GLP-1R, cAMP formation [1]: 0.23 nM
- EC50 (nM) GluR, cAMP formation [2]: 1.87 nM

Binder: H-H[Aib]QGTFTSDYSKYLDSK([isoGlu-Palmitoyl])AAHDFVEWLLEA-NH2 [Compound 43]
- EC50 (nM) GLP-1R, cAMP formation [3]: 0.082 nM
- EC50 (nM) GluR, cAMP formation [4]: 0.12 nM

B7: Compound 5 (peptide)
peptide: H-HSQGTFTSDYSKYLDSKAAHDFVEWLK([γGlu-Palmitoyl])RA-NH2
SMILES: CCCCCCCCCCCCCCCC(=O)N[C@@H](CCC(=O)NCCCC[C@H](NC(=O)[C@H](CC(C)C)NC(=O)[C@H](Cc1c[nH]c2ccccc12)NC(=O)[C@H](CCC(=O)O)NC(=O)[C@@H](NC(=O)[C@H](Cc1ccccc1)NC(=O)[C@H](CC(=O)O)NC(=O)[C@H](Cc1c[nH]cn1)NC(=O)[C@H](C)NC(=O)[C@H](C)NC(=O)[C@H](CCCCN)NC(=O)[C@H](CO)NC(=O)[C@H](CC(=O)O)NC(=O)[C@H](CC(C)C)NC(=O)[C@H](Cc1ccc(O)cc1)NC(=O)[C@H](CCCCN)NC(=O)[C@H](CO)NC(=O)[C@H](Cc1ccc(O)cc1)NC(=O)[C@H](CC(=O)O)NC(=O)[C@H](CO)NC(=O)[C@@H](NC(=O)[C@H](Cc1ccccc1)NC(=O)[C@@H](NC(=O)CNC(=O)[C@H](CCC(N)=O)NC(=O)[C@H](CO)NC(=O)[C@@H](N)Cc1c[nH]cn1)[C@@H](C)O)[C@@H](C)O)C(C)C)C(=O)N[C@@H](CCCNC(=N)N)C(=O)N[C@@H](C)C(N)=O)C(=O)O
- EC50 (nM) GLP-1R, cAMP formation [1]: 0.57 nM
- EC50 (nM) GluR, cAMP formation [2]: 0.22 nM

Binder: H[Aib]QGTFTSDYSKYLDSK([isoGlu-Palmitoyl])AAHEFVEWLLSA-NH2 [Compound 41]
- EC50 (nM) GLP-1R, cAMP formation [3]: 0.13 nM
- EC50 (nM) GluR, cAMP formation [4]: 0.08 nM

Binder: HXQGTFTSDYSKYLDSKAAHDFVEWLLSA (Aib at position 2; K(Dodecanoyl-γ-Glu) at position 17; C-terminal amide (NH2)) [Compound 14]
- EC50 (nM) GLP-1R, cAMP formation [1]: 0.14 nM
- EC50 (nM) GluR, cAMP formation [2]: 0.78 nM

Binder: H-H[Aib]QGTFTSDYSKYLDSK([isoGlu-Palmitoyl])AAEDFVEWLLSA-NH2 [Compound 42]
- EC50 (nM) GLP-1R, cAMP formation [3]: 0.03 nM
- EC50 (nM) GluR, cAMP formation [4]: 0.27 nM

B8: Compound 6 (peptide)
peptide: H-HSQGTFTSDYSKYLDSKAAHDFVEWLLK([γGlu-Palmitoyl])A-NH2
SMILES: CCCCCCCCCCCCCCCC(=O)N[C@@H](CCC(=O)NCCCC[C@H](NC(=O)[C@H](CC(C)C)NC(=O)[C@H](CC(C)C)NC(=O)[C@H](Cc1c[nH]c2ccccc12)NC(=O)[C@H](CCC(=O)O)NC(=O)[C@@H](NC(=O)[C@H](Cc1ccccc1)NC(=O)[C@H](CC(=O)O)NC(=O)[C@H](Cc1c[nH]cn1)NC(=O)[C@H](C)NC(=O)[C@H](C)NC(=O)[C@H](CCCCN)NC(=O)[C@H](CO)NC(=O)[C@H](CC(=O)O)NC(=O)[C@H](CC(C)C)NC(=O)[C@H](Cc1ccc(O)cc1)NC(=O)[C@H](CCCCN)NC(=O)[C@H](CO)NC(=O)[C@H](Cc1ccc(O)cc1)NC(=O)[C@H](CC(=O)O)NC(=O)[C@H](CO)NC(=O)[C@@H](NC(=O)[C@H](Cc1ccccc1)NC(=O)[C@@H](NC(=O)CNC(=O)[C@H](CCC(N)=O)NC(=O)[C@H](CO)NC(=O)[C@@H](N)Cc1c[nH]cn1)[C@@H](C)O)[C@@H](C)O)C(C)C)C(=O)N[C@@H](C)C(N)=O)C(=O)O
- EC50 (nM) GLP-1R, cAMP formation [1]: 0.09 nM
- EC50 (nM) GluR, cAMP formation [2]: 0.1 nM
